Results published in the supplement of paper PMC9112550, “Optimization of the antimicrobial peptide Bac7 by deep mutational scanning” (BMC Biology, 2022).

Test system: Escherichia coli TOP10
Experiment: shrunken log2 fold change of peptide-encoding DNA abundance (4.5 h post-induction vs induction); higher = less antimicrobial activity (less host growth inhibition)
Settings: time post-induction: 4.5 h; library: site-saturation at positions 5, 18, 19, 20
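Further: peptides expressed intracellularly from a pBAD plasmid library in pooled LB shake-flask culture, induced with 0.3% L-arabinose, DNA abundance read by NGS, three biological replicates, DESeq2 with apeglm shrinkage.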

Sequence | shrunken log2 fold change
RRIRNRPPRLPRPRPRPNMFPRP | -0.00614
RRIRNRPPRLPRPRPRPNMTPRP | -0.345
RRIRNRPPRLPRPRPRPNPNPRP | 0.0656
RRIRNRPPRLPRPRPRPNPSPRP | -0.00451
RRIRNRPPRLPRPRPRPNQMPRP | -0.153
RRIRNRPPRLPRPRPRPNREPRP | 0.00564
RRIRNRPPRLPRPRPRPNSEPRP | -0.258
RRIRNRPPRLPRPRPRPNSYPRP | -0.299
RRIRNRPPRLPRPRPRPNTCPRP | -0.195
RRIRNRPPRLPRPRPRPNVGPRP | -0.183
RRIRNRPPRLPRPRPRPNVPPRP | -0.128
RRIRNRPPRLPRPRPRPNYSPRP | -0.364
RRIRNRPPRLPRPRPRPPAHPRP | 0.626
RRIRNRPPRLPRPRPRPPAQPRP | 0.314
RRIRNRPPRLPRPRPRPPCAPRP | -0.0473
RRIRNRPPRLPRPRPRPPDHPRP | 0.0887
RRIRNRPPRLPRPRPRPPDVPRP | -0.14
RRIRNRPPRLPRPRPRPPEEPRP | -0.032
RRIRNRPPRLPRPRPRPPFAPRP | 0.201
RRIRNRPPRLPRPRPRPPFFPRP | 0.162
RRIRNRPPRLPRPRPRPPGDPRP | 0.127
RRIRNRPPRLPRPRPRPPGNPRP | 0.532
RRIRNRPPRLPRPRPRPPHFPRP | 0.0188
RRIRNRPPRLPRPRPRPPITPRP | 0.187
RRIRNRPPRLPRPRPRPPLLPRP | 0.125

Sequence | shrunken log2 fold change
RRIRNRPPRLPRPRPRPPMAPRP | 0.361
RRIRNRPPRLPRPRPRPPMEPRP | -0.203
RRIRNRPPRLPRPRPRPPNNPRP | -0.598
RRIRNRPPRLPRPRPRPPPFPRP | 0.47
RRIRNRPPRLPRPRPRPPPKPRP | 1.5
RRIRNRPPRLPRPRPRPPSHPRP | -0.301
RRIRNRPPRLPRPRPRPPVDPRP | 0.36
RRIRNRPPRLPRPRPRPPWYPRP | -0.224
RRIRNRPPRLPRPRPRPPYQPRP | -0.22
RRIRNRPPRLPRPRPRPQAAPRP | -0.0424
RRIRNRPPRLPRPRPRPQATPRP | 0.991
RRIRNRPPRLPRPRPRPQCMPRP | 2.42
RRIRNRPPRLPRPRPRPQDEPRP | 0.00847
RRIRNRPPRLPRPRPRPQDRPRP | 0.0155
RRIRNRPPRLPRPRPRPQESPRP | -0.342
RRIRNRPPRLPRPRPRPQGGPRP | -0.28
RRIRNRPPRLPRPRPRPQGTPRP | -0.0148
RRIRNRPPRLPRPRPRPQHDPRP | -0.25
RRIRNRPPRLPRPRPRPQICPRP | -0.0199
RRIRNRPPRLPRPRPRPQIGPRP | 0.0326
RRIRNRPPRLPRPRPRPQINPRP | -0.181
RRIRNRPPRLPRPRPRPQLVPRP | -0.0147
RRIRNRPPRLPRPRPRPQLYPRP | -0.206
RRIRNRPPRLPRPRPRPQMPPRP | -0.334
RRIRNRPPRLPRPRPRPQPDPRP | -0.0718

Sequence | shrunken log2 fold change
RRIRNRPPRLPRPRPRPQPHPRP | -0.0382
RRIRNRPPRLPRPRPRPQQMPRP | 0.0512
RRIRNRPPRLPRPRPRPQQNPRP | 0.00594
RRIRNRPPRLPRPRPRPQQWPRP | -0.0346
RRIRNRPPRLPRPRPRPQQYPRP | 0.017
RRIRNRPPRLPRPRPRPQSWPRP | -0.0543
RRIRNRPPRLPRPRPRPQTGPRP | -0.505
RRIRNRPPRLPRPRPRPQTYPRP | -0.375
RRIRNRPPRLPRPRPRPQVNPRP | -0.129
RRIRNRPPRLPRPRPRPQVWPRP | 0.0895
RRIRNRPPRLPRPRPRPQVYPRP | -0.0412
RRIRNRPPRLPRPRPRPRAMPRP | 0.37
RRIRNRPPRLPRPRPRPRARPRP | 0.856
RRIRNRPPRLPRPRPRPRCHPRP | -0.572
RRIRNRPPRLPRPRPRPRGIPRP | -0.0954
RRIRNRPPRLPRPRPRPRHIPRP | -0.0233
RRIRNRPPRLPRPRPRPRIGPRP | 0.0705
RRIRNRPPRLPRPRPRPRPSPRP | 0.443
RRIRNRPPRLPRPRPRPRQSPRP | 0.112
RRIRNRPPRLPRPRPRPRRFPRP | 0.0247
RRIRNRPPRLPRPRPRPRRYPRP | 0.0725
RRIRNRPPRLPRPRPRPRSTPRP | -0.0419
RRIRNRPPRLPRPRPRPRTRPRP | 0.368
RRIRNRPPRLPRPRPRPRWEPRP | 0.291
RRIRNRPPRLPRPRPRPRYLPRP | -0.547

Sequence | shrunken log2 fold change
RRIRNRPPRLPRPRPRPRYPPRP | -0.121
RRIRNRPPRLPRPRPRPSAHPRP | -0.0549
RRIRNRPPRLPRPRPRPSALPRP | -0.213
RRIRNRPPRLPRPRPRPSAMPRP | -0.188
RRIRNRPPRLPRPRPRPSDDPRP | -0.0915
RRIRNRPPRLPRPRPRPSETPRP | -0.083
RRIRNRPPRLPRPRPRPSFRPRP | 0.0751
RRIRNRPPRLPRPRPRPSIKPRP | -0.0594
RRIRNRPPRLPRPRPRPSIVPRP | -0.335
RRIRNRPPRLPRPRPRPSKPPRP | -0.399
RRIRNRPPRLPRPRPRPSLVPRP | -0.292
RRIRNRPPRLPRPRPRPSMNPRP | -0.578
RRIRNRPPRLPRPRPRPSQMPRP | -0.232
RRIRNRPPRLPRPRPRPSQPPRP | -0.0682
RRIRNRPPRLPRPRPRPSQWPRP | -0.194
RRIRNRPPRLPRPRPRPSSAPRP | -0.0956
RRIRNRPPRLPRPRPRPSTDPRP | -0.0474
RRIRNRPPRLPRPRPRPSTIPRP | 0.0179
RRIRNRPPRLPRPRPRPSTMPRP | -1.15
RRIRNRPPRLPRPRPRPSVNPRP | -0.201
RRIRNRPPRLPRPRPRPSVRPRP | -0.00578
RRIRNRPPRLPRPRPRPSVYPRP | -0.172
RRIRNRPPRLPRPRPRPSYFPRP | -0.699
RRIRNRPPRLPRPRPRPTALPRP | -0.18
RRIRNRPPRLPRPRPRPTATPRP | 0.433

Sequence | shrunken log2 fold change
RRIRNRPPRLPRPRPRPTCIPRP | -0.0808
RRIRNRPPRLPRPRPRPTCNPRP | -0.288
RRIRNRPPRLPRPRPRPTEAPRP | 0.21
RRIRNRPPRLPRPRPRPTEYPRP | -0.203
RRIRNRPPRLPRPRPRPTHAPRP | 0.337
RRIRNRPPRLPRPRPRPTHIPRP | -0.0851
RRIRNRPPRLPRPRPRPTIRPRP | -0.0347
RRIRNRPPRLPRPRPRPTITPRP | -0.455
RRIRNRPPRLPRPRPRPTKPPRP | 0.24
RRIRNRPPRLPRPRPRPTLEPRP | 0.041
RRIRNRPPRLPRPRPRPTLNPRP | -0.105
RRIRNRPPRLPRPRPRPTLTPRP | 0.0952
RRIRNRPPRLPRPRPRPTNPPRP | -0.216
RRIRNRPPRLPRPRPRPTNWPRP | 0.31
RRIRNRPPRLPRPRPRPTQCPRP | -0.093
RRIRNRPPRLPRPRPRPTRCPRP | 0.15
RRIRNRPPRLPRPRPRPTRDPRP | 0.386
RRIRNRPPRLPRPRPRPTSCPRP | -0.173
RRIRNRPPRLPRPRPRPTSDPRP | -0.148
RRIRNRPPRLPRPRPRPTVCPRP | -0.0905
RRIRNRPPRLPRPRPRPTVLPRP | -0.091
RRIRNRPPRLPRPRPRPTWLPRP | 0.195
RRIRNRPPRLPRPRPRPTWNPRP | -0.0528
RRIRNRPPRLPRPRPRPTYLPRP | -0.533
RRIRNRPPRLPRPRPRPVDTPRP | 0.033

Sequence | shrunken log2 fold change
RRIRNRPPRLPRPRPRPVEAPRP | 0.277
RRIRNRPPRLPRPRPRPVEHPRP | -0.123
RRIRNRPPRLPRPRPRPVEMPRP | 0.0554
RRIRNRPPRLPRPRPRPVFFPRP | -0.223
RRIRNRPPRLPRPRPRPVGPPRP | 0.448
RRIRNRPPRLPRPRPRPVGRPRP | 0.118
RRIRNRPPRLPRPRPRPVHEPRP | -0.00149
RRIRNRPPRLPRPRPRPVHWPRP | 0.384
RRIRNRPPRLPRPRPRPVIMPRP | 0.178
RRIRNRPPRLPRPRPRPVNEPRP | -0.0227
RRIRNRPPRLPRPRPRPVPPPRP | 0.234
RRIRNRPPRLPRPRPRPVPTPRP | 0.288
RRIRNRPPRLPRPRPRPVRWPRP | 0.703
RRIRNRPPRLPRPRPRPVSNPRP | -0.00917
RRIRNRPPRLPRPRPRPVTHPRP | 0.0124
RRIRNRPPRLPRPRPRPVTTPRP | 0.171
RRIRNRPPRLPRPRPRPVVLPRP | -0.179
RRIRNRPPRLPRPRPRPVVPPRP | 0.0751
RRIRNRPPRLPRPRPRPVVWPRP | 0.55
RRIRNRPPRLPRPRPRPVWCPRP | -0.226
RRIRNRPPRLPRPRPRPVWLPRP | 0.0895
RRIRNRPPRLPRPRPRPVWQPRP | 0.285
RRIRNRPPRLPRPRPRPVYPPRP | -0.341
RRIRNRPPRLPRPRPRPVYWPRP | 0.0175
RRIRNRPPRLPRPRPRPVYYPRP | -0.562
